Source: the DeepSol protein solubility set

Assay: soluble on expression in E. coli; label from the status in PepcDB or PDB records

| Sequence | soluble on expression in E. coli |
| --- | --- |
| MAQMTMVQAITDALRIELKNDPNVLIFGEDVGVNGGVFRATEGLQAEFGEDRVFDTPLAESGIGGLAIGLALQGFRPVPEIQFFGFVYEVMDSICGQMARIRYRTGGRYHMPITIRSPFGGGVHTPELHSDSLEGLVAQQPGLKVVIPSTPYDAKGLLISAIRDNDPVIFLEHLKLYRSFRQEVPEGEYTIPIGKADIKREGKDITIIAYGAMVHESLKAAAELEKEGISAEVVDLRTVQPLDIETIIGSVEKTGRAIVVQEAQRQAGIAANVVAEINERAILSLEAPVLRVAAPDTVYPFAQAESVWLPNFKDVIETAKKVMNF | soluble |
| MAQNLIFITIALVAIVNAGPGEEREKGPGEHKRGGKHHGFPSFFGNVSAEGRKEIAVVFKNENLTLAQADTQIASLAEKYGFAAAYKEHKEKEAVRQAETKKNTTTVINNLSSVATKLSAIRENKDQTRKAQHEAIEALRNENGVEVDTIEFIAKRSRGFGGRHGGRKGGKGGKHFGKKNGDKKRGPHGGDEEGKKTKEAAQ | not soluble |
| MAQTLAQTKQISQSHTFDVSQSHHKTPDDTNSHSVIYSTQNLDLWYGENHALQNINLDIYENQITAIIGPSGCGKSTYIKTLNRMVELVPSVKTAGKILYRDQDIFDQKYSKEQLRTNVGMVFQQPNPFPKSIYDNITYGPKIHGIKNKKVLDEIVEKSLRGAAIWDELKDRLHTNAYSLSGGQQQRVCIARCLAIEPEVILMDEPTSALDPISTLRVEELVQELKEKYTIIMVTHNMQQAARVSDKTAFFLNGYVNEYDDTDKIFSNPSNKKTEDYISGRFG | not soluble |
| MAQVLSLENVTLAVEKENSKQAIVKHVSFFINEGEIVALVGESGSGKSVTAQSIIGLNQESIQFDDGNISFESKDLTNLQESEWNQIRGKDISFIFQDPLSSLNPTMKVGRQITEVILQHEKKSKKEAKEIAINLLNDLGIHEAEKRFEQYPHQLSGGMRQRICLAIAFACHPKLVIADEPTTALDVTIQKQIMGLLKERKEKQNTSILLITHDLALVREVADRVVVMYGGRIVEKGTIQEVIGSPKHPYTKSLLQAIPNMDDAEKVLRAIEGTTPSIETLNSFGCPFVNRCPVAIQECIHRFPERTTYSAEHSSHCWQHVLEHDRAKSKEKVNVS | not soluble |
| MARASSTKARKQRHDPLLKDLDAAQGTLKKINKKKLAQNDAANHDAANEEDGYIDSKASRKILQLAKEQQDEIEGEELAESERNKQFEARFTTMSYDDEDEDEDEDEEAFGEDISDFEPEGDYKEEEEIVEIDEEDAAMFEQYFKKSDDFNSLSGSYNLADKIMASIREKESQVEDMQDDEPLANEQNTSRGNISSGLKSGEGVALPEKVIKAYTTVGSILKTWTHGKLPKLFKVIPSLRNWQDVIYVTNPEEWSPHVVYEATKLFVSNLTAKESQKFINLILLERFRDNIETSEDHSLNYHIYRAVKKSLYKPSAFFKGFLFPLVETGCNVREATIAGSVLAKVSVPALHSSAALSYLLRLPFSPPTTVFIKILLDKKYALPYQTVDDCVYYFMRFRILDDGSNGEDATRVLPVIWHKAFLTFAQRYKNDITQDQRDFLLETVRQRGHKDIGPEIRRELLAGASREFVDPQEANDDLMIDVN | soluble |
| MARDVKKRGKPAYTNRRNRQKYLKKKDNKKKLSKSAVPIIKYTWDETKTPRENVRDMGIAFNPNDAVPIAEHRKEIIDAEPIDGVSIVVPKPEKKVTGRKKNEKQAAHIISNLEQQVKEEEEARAGQDRKFRLFHRETELCVYMLARHGEDFQAMTRDPKNLWQYTPKQWAKKIRTHKESEMCKFLETA | not soluble |
| MARFSSVLIYDGECPYCSVAAKALEQVDDIGAISWYDESAQSFLTAQFDEPPFAMVLVDRPAQQVYAGRAAAEELAGRAGLPDLVGSLVRDNYEKIAHVVGLASGRGREPDDVHERYVLADDAQDRFDTLAKDAVDRDIRADALEHHHHHH | soluble |
| MARKLFTPITIKDMTLKNRIVMSPMCMYSSHEKDGKLTPFHMAHYISRAIGQVGLIIVEASAVNPQGRITDQDLGIWSDEHIEGFAKLTEQVKEQGSKIGIQLAHAGRKAELEGDIFAPSAIAFDEQSATPVEMSAEKVKETVQEFKQAAARAKEAGFDVIEIHAAHGYLIHEFLSPLSNHRTDEYGGSPENRYRFLREIIDEVKQVWDGPLFVRVSASDYTDKGLDIADHIGFAKWMKEQGVDLIDCSSGALVHADINVFPGYQVSFAEKIREQADMATGAVGMITDGSMAEEILQNGRADLIFIGRELLRDPFFARTAAKQLNTEIPAPVQYERGW | soluble |
| MARLLMIPGPTPVDPEVLLAMARPVISHTSPDFDEIHGETVSMLQKLFRTSGKVFLLPGSGSLGMEFAVRSVAGRGSRALVLKAGYFGGYFERILRSLGASVTVVESPVGRGFTGADVEEALDRAGDVDVVFVQHVETSTSVANPVREIAGVVKKNGARLVVDGIASVGGMDLRLDEWGVDVALTGSQKALSTPPGLAIVAFSSEYSVELEKREPSGIYFDFLSLSREMESTRNYHITPAVNLVFALNASLKRILGEGLENRFERHRVLARAFTRAMEALGLRLVAEEPFRAWTVTAVYLPQGIDWSRFYSVMRKRGVEVAGGLGGLKGKIFRVGHMGEVDANDLIATIAAIERSLVELGYREARLGQGLEAAQKELSSLGL | soluble |
| MARLTAYERRKFRVRNRIKRTGRLRLSVFRSLKHIYAQIIDDEKGVTLVSASSLALKLKGNKTEVARQVGRALAEKALALGIKQVAFDRGPYKYHGRVKALAEGAREGGLEF | soluble |
| MARNSTLTNLFLSTKRNMGRLISHIVKADDIDDIVQETFIKTYEADLKQEIKYVRSYMLKTAKNLALNHVARWDNKYNDSLEDFSQPPVQLTSGKVEDDYESKEQFLFFCRATDQLSGSVRKCFILKKVYGLSQKEIASYLNLSESTVEKHIAQGLLKSTKYIKRMNHGHSVKGAKQNHQVHSLQVKKTVLK | not soluble |
| MARRILVVEAEAPIREMVCFVLEQNGFQPVEAEDYDSAVNQLNEPWPDLILLEWMLPGGSGIQFIKHLKRESMTRDIPVVMLTARGEEEDRVRGLETGADDYITKPFSPKELVARIKAVMRRISPMA | soluble |
| MARRRRAEVRQLQPDLVYGDVLVTAFINKIMRDGKKNLAARIFYDACKIIQEKTGQEPLKVFKQAVENVKPRMEVRSRRVGGANYQVPMEVSPRRQQSLALRWLVQAANQRPERRAAVRIAHELMDAAEGKGGAVKKKEDVERMAEANRAYAHYRW | soluble |
| MASASNKQLELWKQYADTKNPAIKEQLIIEYSNIVKYIAGRLSIYFGSNVEYDDLIGYGIFGLIDAIEKFDINKGVKFETYASLRIRGSIIDSIRELDWVPRSLRQKNKELEKVYAEIENELGRSASDKEVADKLGITVDELNKLLNEVNLSSMISLEEFLEQNYEIGVTTAPESRDEKPEGYIEMAELREILADAISKLPEKEKMVITLYYFGEVVK | soluble |
| MASATARGLRKRLTPQEARLWAGLRELKLRGYHFRRRAPIGCYVVDFVCLSAKLVIDADGEQQAMPAHFAADRQRGVVLRRQGFRVLHFWNSDIDRYFEGVMQTVLDALPPPSVRPNVSRTGHSIHEGAGESG | soluble |
| MASCVLTHSPPPPMTAKSPPIPAPSPEQIGLRIRALRKRQKRTLAWLSAQCGLDKGFLSRLERGEKSASVGTLHTVAGALGSSLSALLGEADPQTEIQIVRAADRHRMTTAPGPGEHIYEAITLGSSHSGLSVMVVEVGTHGAHTEAHHGGDELIFVLDGRIRVHFGGHTVLLERDDSVRFPGYLPHSLSAEGRKLARALVVIASG | not soluble |
| MASESAVKDSQPSLDLASATSGDKIVTAQENGKAPDGQTVAGEVMGPQRPRSNSGRELTDEEILASVMIKNLDTGEEIPLSLAEEKLPTGINPLTLHIMRRTKEYVSNDAAQSDDEEKLQSQPTDTDGGRLKQKTTQLKKFLGKSVKRAKHLAEEYGERAINKVKSVRDEVFHTDQDDPSSSDDEGMPYTRPVKFKAAHGFKGPYDFDQIKVVQDLSGEHMGAVWTMKFSHCGRLLASAGQDNVVRIWALKNAFDYFNNMRMKYNTEGRVSPSPSQESLSSSKSDTDTGVCSGTDEDPDDKNAPFRQRPFCKYKGHTADLLDLSWSKNYFLLSSSMDKTVRLWHISRRECLCCFQHIDFVTAIAFHPRDDRYFLSGSLDGKLRLWNIPDKKVALWNEVDGQTKLITAANFCQNGKYAVIGTYDGRCIFYDTEHLKYHTQIHVRSTRGRNKVGRKITGIEPLPGENKILVTSNDSRIRLYDLRDLSLSMKYKGYVNSSSQIKASFSHDFTYLVSGSEDKYVYIWSTYHDLSKFTSVRRDRNDFWEGIKAHNAVVTSAIFAPNPSLMLSLDVQSEKSEGNEKSEDAEVLDATPSGIMKTDNTEVLLSADFTGAIKVFVNKRKNVS | not soluble |
| MASIGRAIVRVPKNVKKGQIFKVQMVIIHPMETGLRKDPKTGKKIPAHYITHVDLYFNGKLVTKINTSPGISKNPYFAIKMKAEEAGTLKIVYEDNKGGKWEKEVKINVA | not soluble |
| MASLSDQSGSIGSEQTRPSGAIPVESLPPQALEQLIASLQQEVEQLADALQQLNFANQRWTLCKQSIEAFAEETTRVDLPGAQSRATDAISSTASAKPETSVEVNQNQRLLVPLSRSLYVLGRVINPERCLIDIGTGYHVERKLADAAEFFDRRLKHVRGSMRQLTLKIDQNQQQMQTIREILVRKLAGAQQAAEHT | not soluble |
| MASMTGGQQMGRDLQVTLYGTIKAGVEVSRVKDAGTYKAQGGKSKTATQIADFGSKIGFKGQEDLGNGMKAIWQLEQKASIAGTNSGWGNRQSFIGLKGGFGTVRAGNLNTVLKDSGDNVNAWESGSNTEDVLGLGTIGRVESREISVRYDSPVFAGFSGSVQYVPRDNANDVDKYKHTKSSRESYHAGLKYENAGFFGQYAGSFAKYADLNTDAERVAVNTANAHPVKDYQVHRVVAGYDANDLYVSVAGQYEAAKNNEVGSIKGKKHEQTQVAATAAYRFGNVTPRVSYAHGFKAKVNGVKDANYQYDQVIVGADYDFSKRTSALVSAGWLKQGKGAGKVEQTASMVGLRHKF | soluble |
| MASNPNDLPDFPEHEYAATQQVGEGVINGDLYLTSASGAIQKGTNTKVTLEPATSYMKAYYAKFGNLDAAKRDPDVQPPVLDPRRATYVREATTDQNGRFDFDHIPNGTYYISSELTWSAQSDGKTITEGGTVTKLVTVSGSQPQKVLLTR | soluble |
| MASNQQDVVKELNQQVANWTVAYTKLHNFHWYVKGPNFFSLHVKFEELYNEASQYVDELAERILAVGGNPVGTLTECLEQSIVKEAAKGYSAEQMVEELSQDFTNISKQLENAIEIAGNAGDDVSEDMFIGMQTSVDKHNWMFKSYLSLEHHHHHH | soluble |
| MASPISHSSHENASGKYGYGDESQHGKNFHQKAEHSGHEAKEKGYSQDGKAADHDALHKDAAEHKQNKEAHQSGSGNKYVDDASNYNKDVKTKTFGFFDYRYVQPQYHMEQYHTDEKHANKYAGDEHNAGQQHKDNGGYHADGHQGYDKAQEKHGASHTNYGNEDAGHKSKYDDNEGKYGDHTDGYYNKGYDNYGQGHDSESYQPSYYQPKPKYYGGHQSHYQPSARHSSPYQGDQYYGYEAPHY | not soluble |
| MASRRELKKNVNYIAGELFTECLINSMFIPGTDKAKADELMAEVLRMQDEFVSRISHTEPGNVKGFYKKFRVDFNAKVNEIIEAIGKLN | not soluble |
| MASSSSTLPLHMYIRPLIIEDLKQILNLESQGFPPNERASEEIISFRLINCPELCSGLFIREIEGKEVKKETLIGHIMGTKIPHEYITIESMGKLQVESSNHIGIHSVVIKPEYQKKNLATLLLTDYIQKLSNQEIGNKIVLIAHEPLIPFYERVGFKIIAENTNVAKDKNFAEQKWIDMERELIKEEYDN | soluble |
